Assay results taken from paper PMC2901844 (DNA repair, 2010).
One block for each binder: values may come before it.

Tests used:
[1] = molecular target: T1, full length Cricetulus griseus Xrcc1-ECFP (Cricetulus griseus, UniProt O54935 1-633); test: pull-down
[2] = molecular target: T1, full length Cricetulus griseus …; test: far-Western, overlay or dot blot
Xrcc1(1–325)-ECFP = Xrcc1(1–325)-ECFP (Cricetulus griseus, UniProt O54935 1-325); test: far-Western, overlay or dot blot
Sequence of Xrcc1(1–325)-ECFP (O54935 1-325): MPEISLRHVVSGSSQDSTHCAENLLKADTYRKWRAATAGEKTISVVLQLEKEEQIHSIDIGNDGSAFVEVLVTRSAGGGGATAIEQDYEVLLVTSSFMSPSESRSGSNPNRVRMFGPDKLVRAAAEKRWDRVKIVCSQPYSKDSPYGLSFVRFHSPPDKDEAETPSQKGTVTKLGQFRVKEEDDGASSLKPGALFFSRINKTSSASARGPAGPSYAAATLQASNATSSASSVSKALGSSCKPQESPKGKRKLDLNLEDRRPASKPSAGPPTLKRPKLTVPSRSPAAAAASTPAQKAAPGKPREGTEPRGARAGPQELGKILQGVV

T1 sequence (O54935 whole entry): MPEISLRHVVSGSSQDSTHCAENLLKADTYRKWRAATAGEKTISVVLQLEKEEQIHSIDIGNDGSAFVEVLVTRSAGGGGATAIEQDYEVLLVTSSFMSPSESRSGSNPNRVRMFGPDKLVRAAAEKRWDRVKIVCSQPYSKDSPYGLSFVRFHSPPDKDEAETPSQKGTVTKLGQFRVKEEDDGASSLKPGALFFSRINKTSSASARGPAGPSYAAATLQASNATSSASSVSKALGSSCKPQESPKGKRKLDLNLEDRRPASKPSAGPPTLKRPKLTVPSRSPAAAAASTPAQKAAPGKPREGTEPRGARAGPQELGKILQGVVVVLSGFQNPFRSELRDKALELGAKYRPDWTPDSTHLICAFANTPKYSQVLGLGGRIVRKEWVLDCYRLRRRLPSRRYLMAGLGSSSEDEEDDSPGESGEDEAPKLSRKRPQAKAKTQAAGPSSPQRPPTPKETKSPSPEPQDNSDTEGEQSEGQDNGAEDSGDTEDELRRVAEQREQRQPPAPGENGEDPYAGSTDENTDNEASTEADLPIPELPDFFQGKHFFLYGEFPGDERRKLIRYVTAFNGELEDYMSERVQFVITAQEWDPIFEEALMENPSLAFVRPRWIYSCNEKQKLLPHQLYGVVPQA

binding result [1]: binds
B1: catalytic domain of human UNG2 (Δ93 UNG2) (domain or fragment, UniProt P13051-1 94-313, looked up)
chain: FGESWKKHLSGEFGKPYFIKLMGFVAEERKHYTVYPPPHQVFTWTQMCDIKDVKVVILGQDPYHGPNQAHGLCFSVQRPVPPPPSLENIYKELSTDIEDFVHPGHGDLSGWAKQGVLLLNAVLTVRAHQANSHKERGWEQFTDAVVSWLNQNSNGLVFLLWGSYAQKKGSAIDRKRHHVLQTAHPSPLSVYRGFFGCRHFSKTNELLQKSGKKPIDWKEL

binding result [2]: binds | binding result (Xrcc1(1–325)-ECFP): binds
B2: Cy-3 labelled Δ93 UNG2 (domain or fragment, human, UniProt P13051-1 94-313, looked up)
chain: B1 chain
modifications: Cy-3 label (Cy 3 Ab Labeling kit), sites not stated
